Data: US20030129163A1

Target: KDR/Flk-1 antibody
Assay: cell-based or functional assay

Substance	# Blue Colonies (X-gal) on 5 x 10^5 KSY1 cells/well contacted with 1000 ng KDR/Flk-1 Ab, MOI = 4 (blue colonies)	# Blue Colonies (X-gal) on 5 x 10^5 KSY1 cells/well contacted with 5000 ng KDR/Flk-1 Ab, MOI = 4 (blue colonies)	# Blue Colonies (X-gal) on 1 x 10^5 KSY1 cells/well contacted with 5000 ng KDR/Flk-1 Ab, MOI = 10 (blue colonies)	# Blue Colonies (X-gal) on 1 x 10^5 KSY1 cells/well contacted with 1000 ng KDR/Flk-1 Ab, MOI = 10 (blue colonies)
PABA.CAE retroviral vector (Protein A at BstEII and Avr + Wild Type CAE env) (from UniProt P38507 212-269)	648	946		
wild-type CAE virions (Wild Type CAE env, amphotropic)		66	20	
PABN.CAE retroviral vector (Protein A at BstEII and Ngo + Wild Type CAE env) (from UniProt P38507 212-269)			2550	1560
